Numbering of substitutions follows the chain as printed. Values belong to the binder of their own block, whether it stands above or below them.
Target: T1, ヒトPTHrP(1-34) (human)
T1 construct: Synthetic peptide, bought (Peninsula; ペプチド研究所); Coated on the plate in the ELISA; also called human parathyroid hormone related peptide (1-34)
Assay: ELISA on plate-coated human PTHrP(1-34)

B1: ヒト型化#23-57-137-1抗体 (H鎖バージョン"a"、L鎖バージョン"j") (antibody, IgG1, V domains shown)
VH: QVQLVESGGGVVQPGRSLRLSCAASGFTFSSYGMSWVRQAPGKGLEWVATISSGGSYTYYPDSVKGRFTISRDNSKNTLYLQMNSLRAEDTAVYYCARQTTMTYFAYWGQGTLVTVSS
VL: QLVLTQSPSASASLGASVKLTCTLSSQHSTYTIEWYQQQPEKGPKYLMDLKQDGSHSTGDGIPDRFSGSSSGAERYLTISSLQSEDEADYYCGVGDTIKEQFVYVFGGGTKLTVLG
notes: Human Cγ1 (IgG1) and human lambda C region; Expressed in COS-7 cells; also called hMBC1HcDNA/pCOS1 + hMBC1Ljλ/pCOS1
binding result: binds

B2: ヒト型化#23-57-137-1抗体 (H鎖バージョン"a"、L鎖バージョン"t") (antibody, IgG1, V domains shown)
VH: B1 VH
VL: B1 VL with K45R, L47V, Y91I
notes: Human Cγ1 (IgG1) and human lambda C region; Expressed in COS-7 cells; also called hMBC1HcDNA/pCOS1 + hMBC1Ltλ/pCOS1
binding result: binds

B3: ヒト型化#23-57-137-1抗体 (H鎖バージョン"a"、L鎖バージョン"q") (antibody, IgG1, V domains shown)
VH: B1 VH
VL: B1 VL with Y91I
notes: Human Cγ1 (IgG1) and human lambda C region; Expressed in COS-7 cells for the ELISA; also made in CHO cells; also called hMBC(q); hMBC1HcDNA + hMBC1Lqλ
binding result: binds

B4: ヒト型化#23-57-137-1抗体 (H鎖バージョン"a"、L鎖バージョン"m") (antibody, IgG1, V domains shown)
VH: B1 VH
VL: B1 VL with K45R
notes: Human Cγ1 (IgG1) and human lambda C region; Expressed in COS-7 cells; also called hMBC1HcDNA/pCOS1 + hMBC1Lmλ/pCOS1
binding result: binds

Results, then the binder that gave them:

binding result: binds
B5: ヒト型化H鎖バージョン"a"とキメラL鎖を組み合わせた抗体 (antibody, V domains shown)
VH: B1 VH
VL: QLVLTQSSSASFSLGASAKLTCTLSSQHSTYTIEWYQQQPLKPPKYVMDLKQDGSHSTGDGIPDRFSGSSSGADRYLSISNIQPEDEAMYICGVGDTIKEQFVYVFGGGTKVTVLG
notes: Humanised H chain version a with human Cγ1; The chimeric L chain has the mouse V region

binding result: binds
B6: ヒト型化#23-57-137-1抗体 (H鎖バージョン"a"、L鎖バージョン"o") (antibody, IgG1, V domains shown)
VH: B1 VH
VL: B1 VL with K45R, L47V
notes: Human Cγ1 (IgG1) and human lambda C region; Expressed in COS-7 cells; also called hMBC1HcDNA/pCOS1 + hMBC1Loλ/pCOS1

binding result: binds
B7: ヒト型化#23-57-137-1抗体 (H鎖バージョン"a"、L鎖バージョン"l") (antibody, IgG1, V domains shown)
VH: B1 VH
VL: B1 VL with L47V
notes: Human Cγ1 (IgG1) and human lambda C region; Expressed in COS-7 cells; also called hMBC1HcDNA/pCOS1 + hMBC1Llλ/pCOS1
